Assay results taken from patent US20080220446A1, “Method for Detecting and/or Removing Protein and/or Peptide Comprising a Cross-Beta Structure From an Aqueous Solution Comprising a Protein” (priority 2005, published 2008).

Experiments:
[1] = target: T1, LRP cl-IV binding to BSA-AGE (Bos taurus, UniProt P02769); assay: ELISA, interference with LRP cl-IV binding to BSA-AGE; parameters: species or system human; settings: concentration series, 50 times diluted LRP cl-IV medium
T1 construct: made in house; host or cells: HEK293E/S (LRP cl-IV, culture supernatant)
T1 sequence (P02769 25-607): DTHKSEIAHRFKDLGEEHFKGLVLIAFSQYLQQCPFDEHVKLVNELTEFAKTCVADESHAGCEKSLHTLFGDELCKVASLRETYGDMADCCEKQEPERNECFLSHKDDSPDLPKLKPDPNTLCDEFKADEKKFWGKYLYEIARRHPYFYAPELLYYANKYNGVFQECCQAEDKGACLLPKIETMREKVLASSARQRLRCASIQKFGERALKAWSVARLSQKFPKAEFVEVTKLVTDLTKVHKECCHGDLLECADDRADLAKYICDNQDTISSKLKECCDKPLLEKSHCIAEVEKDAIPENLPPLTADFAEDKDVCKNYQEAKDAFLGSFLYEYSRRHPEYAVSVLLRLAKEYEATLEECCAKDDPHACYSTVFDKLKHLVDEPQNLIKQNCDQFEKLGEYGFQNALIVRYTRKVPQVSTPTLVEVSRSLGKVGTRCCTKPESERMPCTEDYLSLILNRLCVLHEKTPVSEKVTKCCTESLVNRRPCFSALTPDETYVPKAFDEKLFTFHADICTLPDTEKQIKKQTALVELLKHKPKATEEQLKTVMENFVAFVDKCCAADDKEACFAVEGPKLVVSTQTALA
Description: To test whether amyloid-like crossbeta structure binding compounds tPA, Congo red, Thioflavin T and Thioflavin S interfere with LRP cl-IV binding to BSA-AGE, concentration series of the potential inhibitory amyloid binding moieties were tested in the presence of 50 times diluted medium containing LRP cl-IV. The following inhibitors were used: tPA, Congo red, Thioflavin T (ThT) and Thioflavin S (ThS). As a control to tPA, K2P tPA, which lacks the amyloid-like misfolded protein binding finger domain, was included in the analyses. The influence of tPA and K2P tPA was tested in the presence of 10 mM ε-amino caproic acid to avoid binding of the kringle2 domain of tPA and K2P tPA to lysine- and arginine residues. Binding buffer and K2P tPA serve as negative controls in these inhibition studies. The concentration series was measured in triplicate, the values averaged and standard deviations calculated. Background signals obtained with buffer-coated wells were subtracted. Signals obtained with binding of LRP cluster IV to BSA-AGE was set arbitrarily to a reference binding of 100% and signals obtained with the concentration series of misfolded protein binding moieties and K2P tPA were calculated based on this set reference.

tPA [2] = target: T2, tPA (Homo sapiens, UniProt P00750); assay: tPA binding assay with immobilized biopharmaceuticals in an ELISA; settings: coated 1:10, one-site binding model
T2 sequence (P00750 36-562): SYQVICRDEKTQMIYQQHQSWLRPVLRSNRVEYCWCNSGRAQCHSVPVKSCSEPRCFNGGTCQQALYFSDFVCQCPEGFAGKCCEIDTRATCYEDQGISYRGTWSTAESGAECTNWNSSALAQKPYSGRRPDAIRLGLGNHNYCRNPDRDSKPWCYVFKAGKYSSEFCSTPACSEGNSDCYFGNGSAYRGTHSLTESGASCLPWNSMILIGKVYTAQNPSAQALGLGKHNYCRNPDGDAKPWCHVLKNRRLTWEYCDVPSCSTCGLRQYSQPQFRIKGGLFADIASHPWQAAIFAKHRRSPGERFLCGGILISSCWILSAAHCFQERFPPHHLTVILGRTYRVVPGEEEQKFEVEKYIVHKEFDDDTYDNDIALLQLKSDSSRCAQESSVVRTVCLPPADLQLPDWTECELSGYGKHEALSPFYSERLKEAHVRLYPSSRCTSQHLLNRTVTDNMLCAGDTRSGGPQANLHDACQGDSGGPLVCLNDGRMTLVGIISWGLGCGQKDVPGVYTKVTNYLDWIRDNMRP
Description: Plates were washed twice with Tris buffered saline pH 7.2 containing 0.1% Tween20 (TBST) and blocked with PBS containing 1% Tween20 for 1 hour at room temperature. […] Plates were washed five times with TBST and incubated with peroxidase labeled anti-mouse immunoglobulins (RAMPO; DAKOCytomation, Glostrup, Denmark) diluted 1:3000 in PBST for 30 minutes at room temperature. Plates were washed five times with PBS 0.1% Tween20, and stained with 100 μL/well of tetramethyl-benzidine (TMB) substrate (Biosource Europe, Nivelles, Belgium). The reaction was terminated with 50 μL/well of 2 M H2SO4 and substrate conversion was read at 450 nm on a Spectramax340 microplate reader. Curves were fitted with a one-site binding model (GraphPad Prism version 4.02 for Windows, Graphpad Software, Calif., USA) from which Kd and Bmax were determined.
(§1) Protein therapeutics were obtained from the local hospital pharmacy and analyzed within the expiry limits as stated by the manufacturers.

[3] = ThT fluorescence enhancement by biopharmaceuticals; format: physicochemical; settings: +/− SD; five μL of protein therapeutic
Description: (§2) Fluorescence of ThT—protein/peptide adducts was measured as follows. […] Fluorescence was measured at 485 nm upon excitation at 435 nm. Background signals from buffer, buffer with ThT and protein/peptide solution without ThT were subtracted from corresponding measurements with protein solution incubated with ThT. Regularly, fluorescence of Aβ was used as a positive control, and fluorescence of FP10, a non-amyloid fibrin fragment^16, was used as a negative control. Fluorescence was measured in triplicate on a Hitachi F-4500 fluorescence spectrophotometer (Ltd., Tokyo, Japan).
(§3) β2-GPI was reduced and alkylated as follows. Sixhundredforty μl of β2-GPI stock was mixed with 640 μl of 8 M Urea (cooled solution) in 0.1 M Tris pH-8.2. The solution was degassed with N2 gas for approximately 6 minutes. From a 1 M DTT stock 12.8 μl was added to the solution, mixed and incubated for 3 hours at room temperature. A 1 M Iodoacetamide (Sigma; I-6125) was prepared, of which 25.6 μl was added to the β2-GPI reaction mixture. The solution was subsequently dialysed against PBS. […] Signals obtained with alkyl-β2gpi are compared with those obtained with native β2gpi starting material and with positive control acid/heat denatured amyloid-like misfolded γ-globulins.
as §1
(§4) Fluorescence of Thioflavin T (ThT; Sigma T-3516, St. Louis, Mo., USA) and Congo red (CR; Aldrich Chemical Company Inc., Milwaukee, Wis., USA) was measured on a Hitachi F-4500 spectrophotometer at an excitation wavelength of 435 nm and emission wavelength of 485 nm for ThT and an excitation wavelength of 550 nm and emission wavelength of 595 nm for Congo red. […] Fluorescence was measured in triplicate. Background fluorescence of both protein in buffer and dye-solution were subtracted from the total fluorescence signal. Five μg/mL fibrillar amyloid-β(1-40) E22Q (Peptide Synthesis Facility of the Dutch Cancer Institute NKI, Amsterdam, The Netherlands) was used as a positive control in all fluorescence assays.

tPA [4] = target: T2, tPA; assay: tPA ELISA with coated protein therapeutics; format: binding; settings: ELISA, stored at the recommended temperature of 4° C.
Description: (§5) Formulated protein therapeutics were obtained from the local hospital pharmacy and were used as supplied by the manufacturers. […] Lyophilized therapeutics were dissolved according to the manufacturers recommendations. GH, zinc-insulin, Cealb and gelatin were stored at −20, 4, room temperature, 37 and 65° C. Other protein therapeutics were only kept at 4° C., and assayed for the presence of cross-β structure at shown time points. Enhancement in fluorescence of ThT and Congo red was measured with all formulated protein therapeutics. For this purpose, proteins were diluted to the indicated concentrations. […] Zinc-insulin was diluted tenfold in the activation assay, GH was diluted to a final concentration of 500 μg ml^−1. Activation of factor XII and prekallikrein by the therapeutics was tested in the chromogenic factor XII assay (see above). […] After coating, plates were blocked with Blocking Reagent (Roche Diagnostics, Almere, The Netherlands).

tPA [5] = target: T2, tPA; assay: tPA/plasminogen activation assay; format: biochemical; settings: % of standardized positive control; 1:10 diluted samples
Description: as §3
Exiqon Peptide Immobilizer plates were blocked for 1 hour with PBS, 1% Tween20 and rinsed twice with distilled water. The conversion of the chromogenic substrate S-2251 (Chromogenix, Italy) by plasmin was kinetically measured at 37° C. on a Spectramax340 microplate reader at a wavelength of 405 nm. […] Denatured γ-globulins (100 μg/ml) with amyloid-like structure was used as reference and positive control. Lyophilized γ-globulins (Sigma, Mo., USA) were dissolved in a 1(:)1 volume ratio of 1,1,1,3,3,3-hexafluoro-2-propanol and trifluoro-acetic acid and subsequently dried under air. Dried γ-globulins was dissolved in H2O to a final concentration of 1 mg/ml and kept at room temperature for at least three days and subsequently stored at −20° C.
as §1

[6] = Congo red fluorescence enhancement by biopharmaceuticals; format: physicochemical; settings: +/− SD; five μL of protein therapeutic
Description: Background signals from buffer, buffer with Congo red and protein/peptide solution without Congo red were subtracted from corresponding measurements with protein solution incubated with Congo red. Fluorescence was measured in triplicate on a Hitachi F-4500 fluorescence spectrophotometer (Ltd., Tokyo, Japan).
as §1, §4

[7] = Thioflavin T fluorescence of protein solutions; format: physicochemical
Description: as §2, §5
ThT fluorescence of β2GPI was measured as follows. […] CL vesicles were prepared according to an established procedure. Briefly, CL was dried under a stream of nitrogen. The lipids were resuspended to a concentration of 10 mg ml^−1 in 25 mM Tris-HCl, pH 7.3, 150 mM NaCl by vigorous agitation, using a vortex. In the ThT fluorescence assay, fluorescence of β2GPI in buffer, of CL or DXS500k in buffer, of buffer and ThT alone, and of β2GPI-CL adducts and β2GPI-DXS500k adducts, with or without ThT, was recorded as described above (section ThT fluorescence). In addition, TEM images were recorded with CL, β2GPI from human plasma, with or without CL, and with recombinant β2GPI, as described^5.
(§6) To prepare structurally altered ovalbumin (OVA) with amyloid cross-β structures, purified OVA (Sigma, A-7641, lot 071k7094) was heated to 85° C. One mg ml^−1 OVA in 67 mM NaPi buffer pH 7.0, 100 mM NaCl, was heated for two cycles in PCR cups in a PTC-200 thermal cycler (MJ Research, Inc., Waltham, Mass., USA). In each cycle, OVA was heated from 30 to 85° C. at a rate of 5° C./min. Native OVA (nOVA) and heat-denatured OVA (dOVA) were tested in the ThT fluorescence assay and in the Plg-activation assay. In the fluorescence assay and in the Plg-activation assay, 25 and 100 μg ml^−1 nOVA and dOVA were tested, respectively. TEM images of nOVA and dOVA were taken to check for the presence of large aggregates.
MSA (#126674, Calbiochem) was dissolved in 8 M urea, 100 mM Tris-HCl pH 8.2, at 10 mg ml^−1 final concentration. Dithiothreitol (DTT) was added to a final concentration of 10 mM. Air was replaced by N2 and the solution was incubated for 2 h at room temperature. Then, the solution was transferred to ice and iodoacetamide was added from a 1 M stock to a final concentration of 20 mM. […] In the ThT-fluorescence assay 25 μg ml^−1 nMSA and alkyl-MSA were tested, and in the Plg-activation assay 100 μg ml^−1 was tested. The presence of aggregates or fibrils was analyzed using TEM. […]

tPA [8] = target: T2, tPA; assay: Plasminogen-activation assay (tPA activation, S-2251); format: biochemical; settings: for tPA activating potential: Example 4, native, heat-denatured or alkylated preparation as labelled
Description: Plasmin (Pls) activity was assayed as described^16. Peptides and proteins that were tested for their stimulatory ability were regularly used at 100 μg ml^−1. […] Chromogenic substrate S-2251 (Chromogenix, Instrumentation Laboratory SpA, Milano, Italy) was used to measure Pls activity. Conversion of zymogen factor XII (#233490, Calbiochem, EMD Biosciences, Inc., San Diego, Calif.) to proteolytically active factor XII (factor XIIa) was assayed by measurement of the conversion of chromogenic substrate Chromozym-PK (Roche Diagnostics, Almere, The Netherlands) by kallikrein. Chromozym-PK was used at a concentration of 0.3 mM. Factor XII, human plasma prekallikrein (#529583, Calbiochem) and human plasma cofactor high-molecular weight kininogen (#422686, Calbiochem) were used at concentrations of 1 μg ml^−1. […] Assays were performed using microtiter plates (Costar, Cambridge, Mass., USA). Peptides and proteins were tested for their ability to activate factor XII. 150 μg ml^−1 kaolin, an established activator of factor XII was used as positive control and solvent (H2O) as negative control. The conversion of Chromozym-PK was recorded kinetically at 37° C. for at least 60 minutes. Assays were done in duplicate.
as §5, §6
MSA (#126674, Calbiochem) was dissolved in 8 M urea, 100 mM Tris-HCl pH 8.2, at 10 mg ml^−1 final concentration. Dithiothreitol (DTT) was added to a final concentration of 10 mM. Air was replaced by N2 and the solution was incubated for 2 h at room temperature. Then, the solution was transferred to ice and iodoacetamide was added from a 1 M stock to a final concentration of 20 mM. […] Alkyl-MSA was dialyzed against H2O before use. […] In the ThT-fluorescence assay 25 μg ml^−1 nMSA and alkyl-MSA were tested, and in the Plg-activation assay 100 μg ml^−1 was tested. The presence of aggregates or fibrils was analyzed using TEM.
Lyophilized sterile glucagon was dissolved at 1 mg ml^−1 in H2O with 10 mM HCl. The solution was subsequently kept at 37° C. for 24 h, at 4° C. for 14 days and again at 37° C. for 9 days. […] TEM analysis was performed to assess the presence of large multimeric structures.

[9] = Stability testing of biopharmaceuticals under denaturing conditions; format: physicochemical; settings: after exposure to harsh denaturing conditions (low pH or heat)
Description: For this purpose, 5 mg/mL Glucagon (Glucagen; Novo Nordisk Farma B. V., Alphen aan de Rijn, The Netherlands) was incubated at 37° C. in 0.01 M HCl for 48 hours. One mg/mL Etanercept (Enbrel; Wyeth Pharmaceuticals B. V., Hoofddorp, The Netherlands) in 67 mM sodium phosphate buffer, 100 mM NaCl pH 7.0 was gradually heated from 30° C. to 85° C. over a period of 12 minutes and afterwards cooled to 4° C. for 5 minutes, this treatment was repeated 4 times. Abciximab (Reopro; Centocor B. V., Leiden, The Netherlands) and Infliximab (Remicade; Schering-Plough B. V., Utrecht, The Netherlands) were incubated at 65° C. for 16 and 72 hours, respectively.

[10] = glucagon after heat-denaturation at 37° C. at low pH in HCl buffer

tPA activation Max. Activation (tPA [5]) [%]	Substance	Fluorescence ThT [3]	Fluorescence CR [6]	amyloid-like properties (ThT-fluorescence and tPA activation) [9]	other results
11.25	Glucagon: human glucagon (Glucagen, Novo Nordisk)	48 +/− 1 a.u.		amyloid-like properties are adopted	enhancement of ThT fluorescence [7, 10]: enhanced ThT fluorescence to a large extent; tPA activating potential (tPA [8]): some tPA activating potential; tPA activation (tPA [8]; [10]): potent activator of tPA
70.93	Insulin Aspart: rapid acting human insulin analogue (NovoRapid Flexpen, Novo Nordisk)	172 +/− 3 a.u.	81 +/− 2 a.u.		tPA Binding Bmax (tPA [2]): 3.617 OD450 nm; tPA activation (tPA [8]; protein solutions stored at 4° C.): activated tPA to a lesser extent, but still significantly
0	Etanercept	23 +/− 3 a.u.		amyloid-like properties are adopted	enhancement of ThT fluorescence ([7]; Example 4, native, heat-denatured or alkylated preparation as labelled): some ThT fluorescence enhancement; tPA activating potential (tPA [8]): some tPA activation
0	Infliximab: human-murine chimeric monoclonal antibody (Remicade-infliximab)	19 +/− 1 a.u.	67 +/− 2 a.u.	amyloid-like properties are adopted	

The remaining lines, values behind:

Substance	tPA activation Max. Activation (tPA [5]) [%]	Fluorescence ThT [3]	Fluorescence CR [6]	amyloid-like properties (ThT-fluorescence and tPA activation) [9]	other results
Thioflavin S [ThS]					influence on binding of LRP cl-IV to BSA-AGE [1]: inhibit binding of LRP cl-IV to BSA-AGE to a large extent
Insulin Zn Suspension: recombinant human Zn2+-chelated insulin (Monotard, Novo Nordisk)	17.44	387 +/− 72 a.u.	79 +/− 6 a.u.		tPA Binding Bmax (tPA [2]): 0.7558 OD450 nm; binding of tPA (tPA [4]): binding of tPA was established
heat/acid-denatured glucagon: glucagon kept at 37° C. in 10 mM HCl					presence of cross-β structure conformation ([7]; conclusion from ThT fluorescence, Plg-activation assay and TEM): comprise the cross-β structure conformation
